Key:
Test in all cases: flow cytometry on CHO cells over-expressing the target
[1] = target: T1, human CD19 on CHO cells (human, UniProt P15391 20-556)
T1 construct: whole, on cells
T1 sequence (looked up): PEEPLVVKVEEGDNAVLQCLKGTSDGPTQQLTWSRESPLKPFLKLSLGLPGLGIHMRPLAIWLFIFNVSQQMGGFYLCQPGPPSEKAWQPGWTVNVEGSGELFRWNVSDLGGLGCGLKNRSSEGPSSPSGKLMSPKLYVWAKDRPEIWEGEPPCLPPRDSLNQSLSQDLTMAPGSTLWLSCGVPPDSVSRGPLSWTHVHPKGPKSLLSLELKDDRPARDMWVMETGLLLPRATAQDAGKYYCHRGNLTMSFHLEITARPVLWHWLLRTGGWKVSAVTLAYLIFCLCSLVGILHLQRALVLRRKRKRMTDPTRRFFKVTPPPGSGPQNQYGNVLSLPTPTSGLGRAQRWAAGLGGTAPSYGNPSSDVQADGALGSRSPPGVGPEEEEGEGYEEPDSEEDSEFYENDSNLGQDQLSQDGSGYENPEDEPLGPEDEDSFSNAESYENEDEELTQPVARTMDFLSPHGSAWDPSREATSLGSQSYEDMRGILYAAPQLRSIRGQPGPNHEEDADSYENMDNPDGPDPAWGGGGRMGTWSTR
Procedure: (§1) The cells were resuspended in ice cold assay buffer at 2*10\hat{ }6/mL and transferred to 96-well V-bottom plate with 100 μL/well. […] The plate was incubated in the dark for 2 hours at 4° C. The cells were washed 3 times by centrifugation at 1000 g for 3 min and resuspended in 100 μL ice cold assay buffer containing goat F(ab′)₂ anti-human IgG-Fc (PE) or PE goat anti-mouse IgG antibody. The plate was incubated in the dark for another 1 hour at 4° C. The cells were washed 2 times by centrifugation at 1000 g for 3 min and resuspended in ice cold assay buffer containing 2% PFA and analyzed on the flow cytometer immediately.

[2] = target: T2, human B7-H4 on CHO cells (human, UniProt Q7Z7D3 25-282)
T2 construct: whole, on cells
T2 sequence (looked up): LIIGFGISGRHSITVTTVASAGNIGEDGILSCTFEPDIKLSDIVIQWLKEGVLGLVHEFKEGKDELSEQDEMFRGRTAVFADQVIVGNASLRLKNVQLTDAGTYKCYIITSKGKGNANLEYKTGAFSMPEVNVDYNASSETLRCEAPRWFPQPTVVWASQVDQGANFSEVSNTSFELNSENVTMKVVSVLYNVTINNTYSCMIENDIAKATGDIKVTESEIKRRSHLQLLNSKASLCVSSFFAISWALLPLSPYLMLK
Procedure: as §1

[3] = target: T3, human CD20 on CHO cells (human, UniProt P11836 1-297)
T3 construct: whole, on cells
T3 sequence (looked up): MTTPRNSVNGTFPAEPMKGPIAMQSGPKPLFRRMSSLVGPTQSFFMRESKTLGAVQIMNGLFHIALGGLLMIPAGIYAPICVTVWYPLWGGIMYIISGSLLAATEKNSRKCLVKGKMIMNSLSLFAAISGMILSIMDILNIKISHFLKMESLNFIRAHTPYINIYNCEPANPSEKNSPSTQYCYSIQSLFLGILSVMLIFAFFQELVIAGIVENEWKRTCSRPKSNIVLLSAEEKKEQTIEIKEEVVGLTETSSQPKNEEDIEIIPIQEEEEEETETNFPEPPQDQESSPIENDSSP
Procedure: as §1

[4] = target: T4, human CD160 on CHO cells (human, UniProt O95971 25-159)
T4 construct: whole, on cells
T4 sequence (looked up): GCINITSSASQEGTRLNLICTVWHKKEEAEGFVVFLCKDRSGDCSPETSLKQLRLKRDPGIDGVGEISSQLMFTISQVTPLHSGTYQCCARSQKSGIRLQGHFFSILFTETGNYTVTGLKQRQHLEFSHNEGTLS
Procedure: as §1

[5] = target: T5, human TIGIT on CHO cells (human, UniProt Q495A1 22-244)
T5 construct: whole, on cells
T5 sequence (looked up): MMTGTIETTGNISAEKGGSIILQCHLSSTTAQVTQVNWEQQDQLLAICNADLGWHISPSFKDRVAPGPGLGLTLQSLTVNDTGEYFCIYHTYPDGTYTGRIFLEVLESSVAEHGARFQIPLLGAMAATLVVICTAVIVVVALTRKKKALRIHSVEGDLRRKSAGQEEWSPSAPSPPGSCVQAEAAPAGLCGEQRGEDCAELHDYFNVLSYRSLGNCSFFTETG
Procedure: as §1

[6] = target: T6, human LTBR on CHO cells (human, UniProt P36941 31-435)
T6 construct: whole, on cells
T6 sequence (P36941 31-435): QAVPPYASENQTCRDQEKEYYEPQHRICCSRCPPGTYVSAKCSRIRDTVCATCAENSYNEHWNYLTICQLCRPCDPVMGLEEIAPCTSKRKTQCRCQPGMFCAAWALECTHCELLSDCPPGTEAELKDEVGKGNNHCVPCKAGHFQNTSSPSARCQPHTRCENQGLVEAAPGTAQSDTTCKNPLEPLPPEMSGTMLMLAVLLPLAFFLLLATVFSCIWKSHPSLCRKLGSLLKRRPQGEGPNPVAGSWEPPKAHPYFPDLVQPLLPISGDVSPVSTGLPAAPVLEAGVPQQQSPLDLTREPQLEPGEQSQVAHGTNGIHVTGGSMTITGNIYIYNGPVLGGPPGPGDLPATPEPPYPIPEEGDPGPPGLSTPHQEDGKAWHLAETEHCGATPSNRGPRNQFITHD
Procedure: as §1

[7] = target: T7, human VISTA on CHO cells (human, UniProt Q9H7M9 33-311)
T7 construct: whole, on cells
Procedure: as §1

[8] = target: T8, human CD200R1 on CHO cells (human, UniProt Q8TD46 25-348)
T8 construct: whole, on cells
T8 sequence (looked up): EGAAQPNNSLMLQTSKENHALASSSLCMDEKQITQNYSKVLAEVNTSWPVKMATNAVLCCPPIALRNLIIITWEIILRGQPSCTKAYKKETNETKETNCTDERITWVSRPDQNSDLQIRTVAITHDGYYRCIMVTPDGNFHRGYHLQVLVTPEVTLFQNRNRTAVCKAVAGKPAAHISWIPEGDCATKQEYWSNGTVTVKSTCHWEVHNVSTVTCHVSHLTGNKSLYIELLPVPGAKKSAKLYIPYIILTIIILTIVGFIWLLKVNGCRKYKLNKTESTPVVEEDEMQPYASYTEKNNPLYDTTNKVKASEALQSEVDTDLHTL
Procedure: as §1

[9] = target: T9, mouse CD137 on CHO cells (mouse, UniProt P20334 24-256)
T9 construct: whole, on cells; also called murine cellular CD137
T9 sequence (P20334 24-256): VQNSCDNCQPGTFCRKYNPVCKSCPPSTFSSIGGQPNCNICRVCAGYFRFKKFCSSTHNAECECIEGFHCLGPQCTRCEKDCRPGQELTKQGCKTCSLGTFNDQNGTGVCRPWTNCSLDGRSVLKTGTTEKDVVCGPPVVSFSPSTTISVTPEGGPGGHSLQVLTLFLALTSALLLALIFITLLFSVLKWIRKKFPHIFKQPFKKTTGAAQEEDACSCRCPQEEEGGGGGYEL
Procedure: as §1

[10] = target: T10, human CD47 on CHO cells (human, UniProt Q08722 19-323)
T10 construct: whole, on cells
Procedure: as §1

[11] = target: T11, human PD-1 on CHO cells (human, UniProt Q15116 25-288)
T11 construct: whole, on cells
T11 sequence (Q15116 25-288): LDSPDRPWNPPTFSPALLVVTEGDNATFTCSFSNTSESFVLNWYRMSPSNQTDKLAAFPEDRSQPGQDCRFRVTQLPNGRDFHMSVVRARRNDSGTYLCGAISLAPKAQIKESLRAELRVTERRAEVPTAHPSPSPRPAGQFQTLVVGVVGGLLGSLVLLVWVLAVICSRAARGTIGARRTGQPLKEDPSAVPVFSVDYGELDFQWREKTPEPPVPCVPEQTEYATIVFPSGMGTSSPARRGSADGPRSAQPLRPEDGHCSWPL
Procedure: as §1

[12] = target: T12, human PD-L1 on CHO cells (human, UniProt Q9NZQ7 19-290)
T12 construct: whole, on cells
T12 sequence (Q9NZQ7 19-290): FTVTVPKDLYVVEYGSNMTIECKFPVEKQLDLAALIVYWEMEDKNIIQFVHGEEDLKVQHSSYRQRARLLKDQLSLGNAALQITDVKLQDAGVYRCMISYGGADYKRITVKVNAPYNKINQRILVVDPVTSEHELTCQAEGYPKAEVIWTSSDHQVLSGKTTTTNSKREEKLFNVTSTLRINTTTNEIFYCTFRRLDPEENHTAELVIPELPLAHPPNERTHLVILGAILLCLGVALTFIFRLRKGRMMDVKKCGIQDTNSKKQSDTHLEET
Procedure: as §1

Measured: binding result

B1: Clone 3712-IgG1v (IgG1v/kappa) (antibody)
heavy: QVQLVQSGAEVKKPGASVKVSCKASGYTFAGFEMHWVRQAPGQGLEWMGAIDPKTGGTDYNQKFKDRVTMTRDTSISTAYMELSRLRSDDTAVYYCARDLGYFDVWGQGTLVTVSSASTKGPSVFPLAPSSKSTSGGTAALGCLVKDYFPEPVTVSWNSGALTSGVHTFPAVLQSSGLYSLSSVVTVPSSSLGTQTYICNVNHKPSNTKVDKKVEPKSCDKTHTCPPCPAPELLGPSVFLFPPKPKDTLMISRTPEVTCVVVDVEHEDPEVKFNWYVDGVEVHNAKTKPREEQYNSTYRVVSVLTVLHQDWLNGKEYKCKVSNKALPAPIEKTISKAKGQPREPQVYTLPPSREEMTKNQVSLTCLVKGFYPSDIAVEWESNGQPENNYKTTPPVLDSDGSFFLYSKLTVDKSRWQQGNVFSCSVMHEALHNHYTQKSLSLSPGK
light: DIQMTQSPSSLSASVGDRVTITCRASQDIRSNLNWYQQKPGGAVKLLIYYTSRLHSGVPSRFSGSGSGTDYTLTISSLQPEDFATYFCQQSEKLPRTFGGGTKVEIRRTVAAPSVFIFPPSDEQLKSGTASVVCLLNNFYPREAKVQWKVDNALQSGNSQESVTEQDSKDSTYSLSSTLTLSKADYEKHKVYACEVTHQGLSSPVTKSFNRGEC
notes: copies: 2 + 2
no binding: all assays above
